In patent publication EP4218932A2 one finds 100 nM L1 data, which are given here for 9 molecules.

This experiment deals with L1 (DV1-GV4) (human). Nature of the experiment: DELFIA affinity ranking, signal with 100 nM biotinylated L1.
Chain of L1 (DV1-GV4) (human) (chain, as listed by the source, chain 1 of 2): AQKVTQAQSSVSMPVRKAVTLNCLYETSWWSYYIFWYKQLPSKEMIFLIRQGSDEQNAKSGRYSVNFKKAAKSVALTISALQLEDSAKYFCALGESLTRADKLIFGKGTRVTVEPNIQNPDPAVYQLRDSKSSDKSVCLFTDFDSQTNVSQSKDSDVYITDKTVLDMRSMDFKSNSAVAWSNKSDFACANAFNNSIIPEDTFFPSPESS
Chain of L1 (DV1-GV4) (human) (chain, as listed by the source, chain 2 of 2): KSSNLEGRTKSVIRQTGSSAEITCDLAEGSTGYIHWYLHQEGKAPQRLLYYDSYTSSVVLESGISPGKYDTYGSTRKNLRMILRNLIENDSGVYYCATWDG

B1: 1252_P01_C08 scFv (scFv)
scFv: EVQLLESGGGLVQPGRSLRLSCAASGFTVSSNYMSWVRQAPGKGLEWVSVIYSGGSTYYADSVKGRFTISRDNSKNTLYLQMNSLRAEDTAVYYCASPIELGAFDIWGQGTLVTVSSGGGGSGGGGSGGGASSYELTQPPSVSVAPGKTARITCGGNNIGSQSVHWYQQKPGQAPMLVIYYDSDRPSGIPERFSGSNSGNTATLTISRVEAGDEADYYCQVWDSSSDHVVFGGGTKLTVL
Take B1: the 100 nM L1 worked out at 1980.

B2: 1141_P01_E01 scFv (scFv)
scFv: QVQLVQSGAEVKKPGESLKISCKGSGYSFTSYWIGWVRQMPGKGLEWMGIIYPGDSDTRYSPSFQGQVTISADKSISTAYLQWSSLKASDTAMYYCARHQVDTRTADYWGQGTLVTVSSGGGGSGGGGSGGGASQSALTQPASVSGSPGQSVTISCTGTRSDVGGYNYVSWYQHHPGKAPKLMIYEVSNRPSGVSNRFSGSKSGNTASLTISGLQAEDEADYYCSSYTSTSTLVFGGGTKLTVL
Consider B2, for which the 100 nM L1 worked out at 137000.

B3: 1251_P02_G10 scFv (scFv)
scFv: EVQLVESGGGLVQPGGSLRLSCAASGFTFSDYYMSWIRQAPGKGLEWVSYISSSGSTIYYADSVKGRFTISRDNAKNSLYLQMNSLRAEDTAVYYCARHSWNDAFDIWGRGTLVTVSSGGGGSGGGGSGGGASDIQMTQSPSSLSASVGDRVTITCRASQSISSHLNWYQQKPGKAPKLLIYAASSLQSGVPSRFSASGSGTDFTLTISSLQPEDFATYYCQQSYSTLLTFGGGTKVEIK
B3: the 100 nM L1 is 17100.

B4: 1139_P01_E04 scFv (scFv)
scFv: QVQLQQSGPGLVKPSQTLSLTCAISGDSVSSNSAAWNWIRQSPSRGLEWLGRTYYRSKWYNDYAVSVRSRITINPDTSKNQFSLQLNSVTPEDTAVYYCARSWNDAFDIWGQGTTVTVSSGGGGSGGGGSGGGASDIVMTQSPSTLSASIGDRVTITCRAGQSISTWLAWYQQKPGKAPKLLIYDASSLESGVPLRFSGSGSGTDFTLTISSLQPEDFATYYCQQSYSTPLTFGGGTKVEIK
As to B4, the 100 nM L1 was found to be 23800.

B5: 1245_P01_G09 scFv (scFv)
scFv: QVQLQQSGPGLVKPSQTLSLTCAISGDSVSSNSAAWNWIRQSPSRGLEWLGRTYYGSKWYNEYALSVKSRIIINPDTSKNQFSLQLNSVTPEDTAVYYCARDYYYSMDVWGQGTLVTVSSGGGGSGGGGSGGGASDIVMTQSPSTLSASIGDRVTITCRAGQSISTWLAWYQQKPGKAPKLLIYDASSLESGVPLRFSGSGSGTEFTLAISSLQPDDFATYYCQQSYSTPVTFGQGTKVEIK
B5 came in with a 100 nM L1 of 18400.

B6: 1251_P02_C05 scFv (scFv)
scFv: EVQLLESGGGLVQPGGSLRLSCAASGFTFSSYAMSWVRQAPGKGLEWVSAISGGGGTTYSSDSVKGRFTISRDNSKNTLYLQMNSLRAEDTAVYYCARDSGVAFDIWGQGTLVTVSSGGGGSGGGGSGGGASDIQMTQSPSFLSASVGDRVTITCRASQNIRTWLAWYQQKPGRAPKLLIYDASSLESGVPSRFSGSGSGTDFTLTISSLQPEDFATYYCQQFKRYPPTFGLGTKVEIK
B6: the 100 nM L1 was determined as 65300.

B7: 1245_P02_G04 scFv (scFv)
scFv: QVQLQQSGPGLVKPSQTLSLTCAISGDSVSSKSAAWNWIRQSPSRGLEWLGRTYYRSKWSTDYAASVKSRITINPDTSKNQLSLQLNSVTPEDTAVYYCARTWSGYVDVWGQGTLVTVSSGGGGSGGGGSGGGASDIQMTQSPPALSASVGDRVTITCRASQDINDWLAWYQHKPGKAPKLLIYDASSLESGVPSRFSGSGSGTEFTLTISSLQPDDFATYYCQQSYSTPQVTFGQGTRLEIK
Turning to B7, the 100 nM L1 came out at 5900.

B8: 1245_P02_F07 scFv (scFv)
scFv: QVQLQQSGPGLVKPSQTLSLTCVISGDSVSSNSAAWNWIRQSPSRGLEWLGRTYYRSKWYNDYAVSVKSRITINPDTSKNQFSLQLNSVTPEDTAVYYCARDYYYSMDVWGQGTMVTVSSGGGGSGGGGSGGGASDIQMTQSPSTLSASVGDRVTITCRASQSISSWLAWYQQKPGKAPKLLIYDASSLESGVPLRFSGSGSGTEFTLTISSLQPDDFATYYCQQSHSHPPTFGPGTKVDIK
In turn, B8 yielded a 100 nM L1 of 10400.

B9: 1245_P01_E07 scFv (scFv)
scFv: QVQLVESGGGLVKPGGSLRLSCAASGFTFSDYYMSWIRQAPGKGLEWVSYISSSGSTIYYADSVKGRFTISRDNAKNSLYLQMNSLRAEDTAVYYCARVDYADAFDIWGQGTLVTVSSGGGGSGGGGSGGGASDIQMTQSPSSLSASVGDRVTIACRAGQSIGTYLNWYQQKPGKAPKLLIYVASSLQSGVPSRFSGSGSGTEFTLTISSLQPEDFATYYCQQSYSTLLTFGRGTKVEIK
Molecule B9 returned a 100 nM L1 of 163000.
